Laboratory results taken from PMC13061415.

B1: Twa1 CTLH-CRA domain (58-190), wild type [mouse] / muskelin CTLH-CRA domain (205–735 Δ248–625) [rat] (parent)
chain 1: EHPMLTDMHDKLVLKGDFDACEELIEKAVNDGLFNQYISQQEYPSKDYLLRHCKYLIRKHRFEEKAQMDPLSALKYLQNDLYITVDHSDPEETKEFQLLASALFKSGSDFTALGFSDVDHTYAQRTQLFDTLVNFFPDSMTPPKGNLVDLITL
chain 2: SVDLETLDERIKIREMILKGQIQEAIALINSLHPELLDTNRYLYFHLQQQHLIELIRQRETEAALEFAQTQLAEQGEESRECLTEMERTLALLAFDSPEESPFGDLLHMMQRQKVWSEVNQAVLDYENRESTP

Variants of: B1
Assay: ITC
Conditions: with muskelin CTLH-CRA domain (205–735 Δ248–625) [rat]; 160 µM muskelin + 16 µM Twa1 mutants

Row | Kd [nM] | screen value | Variant
1 | 340 | 0.88 | chain 2 A68G Q69R A73Q L83K E87K L90F F95Y F103V

Same assay, conditions: with muskelin CTLH-CRA domain (205–735 Δ248–625) [rat]; 160 µM muskelin + 16 µM Twa1 mutants; read off a plot

Row | screen value [kcal/mol] | Variant
2 | -9.2 | chain 2 A68G Q69R A73Q L83K E87K L90F F95Y F103V
